# Experimental data: paper PMC9905591, “A single point mutation expands the applicability of ostreolysin A6 in biomedicine” (Scientific Reports, 2023)
# B1: Δ48PlyB (pleurotolysin B) (domain or fragment, Pleurotus ostreatus, UniProt Q5W9E8 49-523, looked up)
# chain: SQAGDTLNDVIQDPTRRNKLINDNNLLKGIIMGRDGPVPSSRELIVRPDTLRAIINNRATIETTTMEAEFTETLMESNYNSASVKVSAPFITANSEYSESSSFKNTETEKSMYTSSRYLFPQGRIDFTTPDSGFDDVIKLSPQFTSGVQAALAKATGTEKREALQNLFQEYGHVFRTKVHIGGVLSAHTMETFSRSENETEVKQDVKAGLEGAVKGWGGGATAGHGNTQGTITTSQNRKLNVKYIVNGGDYTKIQNTEEWVASTNQSEHWRVIEVTEVTAVADLLPQPIRGQVKDLLKPLLGKWVDVEKVPGLESLPVSVYRPKGAIPAGWFWLGDTADASKALLVKPTLPARSGRNPALTSLHQGSGMTEQPFVDLPQYQYLSTYFGSFAHDTPPGSTLRGLRPDHVLPGRYEMHGDTISTAVYVTRPVDVPFPEDECFDLKSLVRVKLPGSGNPPKPRSALKKSMVLFDSGEK
# Biological target: T1, Ostreolysin A6 (Pleurotus ostreatus, UniProt P83467 1-138)
# T1 sequence: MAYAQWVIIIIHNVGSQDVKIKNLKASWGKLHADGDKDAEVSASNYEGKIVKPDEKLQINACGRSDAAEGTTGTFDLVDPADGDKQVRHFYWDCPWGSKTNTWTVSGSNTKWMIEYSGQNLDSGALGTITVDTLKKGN
# Experiment: cell-based or functional assay
binder,measurement,value
B1,"hazard ratio against buffer, Kaplan-Meier survival of Colorado potato beetle larvae on OlyA6/PlyB-treated leaf discs",3.5
